Test results from patent publication CN113480644A (UNIV NANKAI, dated 2021).
Like-named read-outs stand apart in the source and are kept apart here.

Legend:
[1] = molecular target: T1, SARS-CoV-2(2019-nCoV)Spike Protein(S1 Subunit,His Tag) (SARS-CoV-2 (2019-nCoV), UniProt P0DTC2 16-685)
[2] = molecular target: T1, SARS-CoV-2(2019-nCoV)Spike Protein(S1 …); assay: ELISA, S1-His coated, antibody titrated

B1: PR301558 (antibody, V domains shown)
VH: QVQLVQSGAEVKKPGASVKLSCKASGYSFTSYWVNWVRQAPGQGLEWIGMIHPSDSETRLNQKFKDRVTITVDKSTSTAYMELSSLRSEDTAVYYCARADGYEWYFDVWGRGTLVTVSS
VL: DIVLTQSPASLAVSPGQRATITCRASESVDSYGNSFMHWYQQKPGQPPKLLIYRASNLESGIPARFSGSGSRTDFTLTINPVEANDVANYYCQQSNEDPWTFGQGTKVEIK
Question: With B1 as the binder, how does the EC50 [1] read?
Answer: 40.5 pM

B2: PR301441 (antibody, V domains shown)
VH: QVQLVQSGAEVKKPGASVKVSCKASGYSFTSYWVNWVRQAPGQGLEWMGMIHPSDSETRLNQKFKDRVTMTVDKSTSTAYMELSSLRSEDTAVYYCARADGYEWYFDVWGRGTLVTVSS
VL: DIVLTQSPASLAVSPGQRATITCRASESVDSYGNSFMHWYQQKPGQPPKLLIYRASNLESGVPARFSGSGSRTDFTLTINPVEANDVANYYCQQSNEDPWTFGQGTKVEIK
Question: Which EC50 [1] does the source give for B2 here?
Answer: 15.4 pM

B3: PR301442 (antibody, V domains shown)
VH: QVQLVQSGAEVKKPGASVKLSCKASGYSFTSYWVNWVRQAPGQGLEWIGMIHPSDSETRLNQKFKDRVTITVDKSTSTAYMELSSLRSEDTAVYYCARADGYEWYFDVWGRGTLVTVSS
VL: DIVLTQSPASLAVSPGQRATITCRASESVDSYGNSFMHWYQQKPGQPPKLLIYRASNLESGIPARFSGSGSGTDFTLTINPVEANDVANYYCQQSNEDPWTFGQGTKVEIK
Question: For B3, which EC50 [1] is on record?
Answer: 29.4 pM

B4: PR301556 (antibody, V domains shown)
VH: QVQLVQSGAEVKKPGASVKVSCKASGYSFTSYWVNWVRQAPGQGLEWMGMIHPSDSETRLNQKFKDRVTMTVDKSTSTAYMELSSLRSEDTAVYYCARADGYEWYFDVWGRGTLVTVSS
VL: DIVLTQSPASLAVSPGQRATITCRASESVDSYGNSFMHWYQQKPGQPPKLLIYRASNLESGIPARFSGSGSRTDFTLTINPVEANDVANYYCQQSNEDPWTFGQGTKVEIK
Question: For B4, which EC50 [1] is on record?
Answer: 27.2 pM

B5: PR301557 (antibody, V domains shown)
VH: QVQLVQSGAEVKKPGASVKLSCKASGYSFTSYWVNWVRQAPGQGLEWIGMIHPSDSETRLNQKFKDRVTITVDKSTSTAYMELSSLRSEDTAVYYCARADGYEWYFDVWGRGTLVTVSS
VL: DIVLTQSPASLAVSPGQRATITCRASESVDSYGNSFMHWYQQKPGQPPKLLIYRASNLESGVPARFSGSGSRTDFTLTINPVEANDVANYYCQQSNEDPWTFGQGTKVEIK
Question: For B5, which EC50 [1] is on record?
Answer: 43.8 pM

B6: PR301445 (antibody, V domains shown)
VH: QVQLVQSGAEVKKPGASVKISCKTSGYTFTEYTMYWVRQAPGQRLEWMGGINPNNGDTSYNQKFKGRATLTVDKSATTAYMELSSLRSEDTAVYYCARDGYPYYFAMDYWGQGTTVTVSS
VL: DIQMTQSPSSLSASVGDRVTITCKASQNVDTNVAWYQQKPGKAPKGLIYSASHRYSGVPSRFSGSGSGTDFTLTISSVQPEDLATYFCQQYNTYPWTFGQGTKVEIK
Question: How did the EC50 [1] turn out when B6 was run?
Answer: 14.7 pM

B7: PR301444 (antibody, V domains shown)
VH: QVQLVQSGAEVKKPGASVKVSCKTSGYTFTEYTMYWVRQAPGQRLEWMGGINPNNGDTSYNQKFKGRVTITVDKSATTAYMELSSLRSEDTAVYYCARDGYPYYFAMDYWGQGTTVTVSS
VL: DIQMTQSPSSLSASVGDRVTITCKASQNVDTNVAWYQQKPGKAPKGLIYSASHRYSGVPSRFSGSGSGTDFTLTISSLQPEDLATYFCQQYNTYPWTFGQGTKVEIK
Question: For B7, which EC50 [1] is on record?
Answer: 20.4 pM

B8: PR301446 (antibody, V domains shown)
VH: QVQLVQSGAEVKKPGASVKISCKTSGYTFTEYTMYWVRQAPGQRLEWMGGINPNQGDTSYNQKFKGRATLTVDKSATTAYMELSSLRSEDTAVYYCARDGYPYYFAMDYWGQGTTVTVSS
VL: DIQMTQSPSSLSASVGDRVTITCKASQNVDTNVAWYQQKPGKAPKGLIYSASSRYSGVPSRFSGSGSGTDFTLTISSVQPEDLATYFCQQYNTYPWTFGQGTKVEIK
Question: For B8, which EC50 [2] is on record?
Answer: 9.43 pM

B9: PR301447 (antibody, V domains shown)
VH: QVQLVQSGAEVKKPGASVKISCKTSGYTFTEYTMYWVRQAPGQRLEWMGGINPNQGDTSYNQKFKGRATLTVDKSATTAYMELSSLRSEDTAVYYCAREGYPYYFAMDYWGQGTTVTVSS
VL: DIQMTQSPSSLSASVGDRVTITCKASQNVDTNVAWYQQKPGKAPKGLIYSASSRYSGVPSRFSGSGSGTDFTLTISSVQPEDLATYFCQQYNTYPWTFGQGTKVEIK
Question: How did the EC50 [1] turn out when B9 was run?
Answer: 2220 pM

B10: PR301561 (antibody, V domains shown)
VH: QVQLVQSGAEVKKPGASVKVSCKTSGYTFTEYTMYWVRQAPGQRLEWMGGINPNNGDTSYNQKFKGRVTITVDKSATTAYMELSSLRSEDTAVYYCARDGYPYYFAMDYWGQGTTVTVSS
VL: DIQMTQSPSSLSASVGDRVTITCKASQNVDTNVAWYQQKPGKAPKGLIYSASHRYSGVPSRFSGSGSGTDFTLTISSVQPEDLATYFCQQYNTYPWTFGQGTKVEIK
Question: For B10, which EC50 [1] is on record?
Answer: 22 pM

B11: PR301562 (antibody, V domains shown)
VH: QVQLVQSGAEVKKPGASVKVSCKTSGYTFTEYTMYWVRQAPGQRLEWMGGINPNNGDTSYNQKFKGRVTITVDKSATTAYMELSSLRSEDTAVYYCARDGYPYYFAMDYWGQGTTVTVSS
VL: DIQMTQSPSSLSASVGDRVTITCKASQNVDTNVAWYQQKPGKAPKGLIYSASSRYSGVPSRFSGSGSGTDFTLTISSVQPEDLATYFCQQYNTYPWTFGQGTKVEIK
Question: Which EC50 [1] does the source give for B11 here?
Answer: 15 pM

B12: PR301563 (antibody, V domains shown)
VH: QVQLVQSGAEVKKPGASVKISCKTSGYTFTEYTMYWVRQAPGQRLEWMGGINPNNGDTSYNQKFKGRATLTVDKSATTAYMELSSLRSEDTAVYYCARDGYPYYFAMDYWGQGTTVTVSS
VL: DIQMTQSPSSLSASVGDRVTITCKASQNVDTNVAWYQQKPGKAPKGLIYSASHRYSGVPSRFSGSGSGTDFTLTISSLQPEDLATYFCQQYNTYPWTFGQGTKVEIK
Question: For B12, which EC50 [1] is on record?
Answer: 21.7 pM

B13: PR301564 (antibody, V domains shown)
VH: QVQLVQSGAEVKKPGASVKISCKTSGYTFTEYTMYWVRQAPGQRLEWMGGINPNNGDTSYNQKFKGRATLTVDKSATTAYMELSSLRSEDTAVYYCARDGYPYYFAMDYWGQGTTVTVSS
VL: DIQMTQSPSSLSASVGDRVTITCKASQNVDTNVAWYQQKPGKAPKGLIYSASSRYSGVPSRFSGSGSGTDFTLTISSVQPEDLATYFCQQYNTYPWTFGQGTKVEIK
Question: How did the EC50 [1] turn out when B13 was run?
Answer: 15.4 pM

B14: PR301565 (antibody, V domains shown)
VH: QVQLVQSGAEVKKPGASVKISCKTSGYTFTEYTMYWVRQAPGQRLEWMGGINPNQGDTSYNQKFKGRATLTVDKSATTAYMELSSLRSEDTAVYYCARDGYPYYFAMDYWGQGTTVTVSS
VL: DIQMTQSPSSLSASVGDRVTITCKASQNVDTNVAWYQQKPGKAPKGLIYSASHRYSGVPSRFSGSGSGTDFTLTISSLQPEDLATYFCQQYNTYPWTFGQGTKVEIK
Question: B14 was tested. Which EC50 [1] did it give?
Answer: 14.3 pM

B15: PR301566 (antibody, V domains shown)
VH: QVQLVQSGAEVKKPGASVKISCKTSGYTFTEYTMYWVRQAPGQRLEWMGGINPNQGDTSYNQKFKGRATLTVDKSATTAYMELSSLRSEDTAVYYCARDGYPYYFAMDYWGQGTTVTVSS
VL: DIQMTQSPSSLSASVGDRVTITCKASQNVDTNVAWYQQKPGKAPKGLIYSASHRYSGVPSRFSGSGSGTDFTLTISSVQPEDLATYFCQQYNTYPWTFGQGTKVEIK
Question: For B15, which EC50 [1] is on record?
Answer: 14.9 pM

B16: PR301567 (antibody, V domains shown)
VH: QVQLVQSGAEVKKPGASVKISCKTSGYTFTEYTMYWVRQAPGQRLEWMGGINPNQGDTSYNQKFKGRATLTVDKSATTAYMELSSLRSEDTAVYYCAREGYPYYFAMDYWGQGTTVTVSS
VL: DIQMTQSPSSLSASVGDRVTITCKASQNVDTNVAWYQQKPGKAPKGLIYSASHRYSGVPSRFSGSGSGTDFTLTISSLQPEDLATYFCQQYNTYPWTFGQGTKVEIK
Question: B16 was tested. Which EC50 [1] did it give?
Answer: 7540 pM

B17: PR301568 (antibody, V domains shown)
VH: QVQLVQSGAEVKKPGASVKISCKTSGYTFTEYTMYWVRQAPGQRLEWMGGINPNQGDTSYNQKFKGRATLTVDKSATTAYMELSSLRSEDTAVYYCAREGYPYYFAMDYWGQGTTVTVSS
VL: DIQMTQSPSSLSASVGDRVTITCKASQNVDTNVAWYQQKPGKAPKGLIYSASHRYSGVPSRFSGSGSGTDFTLTISSVQPEDLATYFCQQYNTYPWTFGQGTKVEIK
Question: B17 was tested. Which EC50 [1] did it give?
Answer: 9410 pM
